Results on one molecule are retold here after patent US20120192297A1 (TOKYO INSTITUTE OF TECHNOLOGY, published 2012).

This test addresses Cullin 4A (Cul4A), endogenous in 293T cells (human, UniProt Q13619 1-759, limits assumed). The test is described as follows: anti-FLAG immunoprecipitation from 293T cells, western blotting for DDB1 and Cul4A. Background: A western blot detects proteins with antibodies after separation by electrophoresis.

Sequence of Cullin 4A (Cul4A), endogenous in 293T cells (Q13619 whole entry): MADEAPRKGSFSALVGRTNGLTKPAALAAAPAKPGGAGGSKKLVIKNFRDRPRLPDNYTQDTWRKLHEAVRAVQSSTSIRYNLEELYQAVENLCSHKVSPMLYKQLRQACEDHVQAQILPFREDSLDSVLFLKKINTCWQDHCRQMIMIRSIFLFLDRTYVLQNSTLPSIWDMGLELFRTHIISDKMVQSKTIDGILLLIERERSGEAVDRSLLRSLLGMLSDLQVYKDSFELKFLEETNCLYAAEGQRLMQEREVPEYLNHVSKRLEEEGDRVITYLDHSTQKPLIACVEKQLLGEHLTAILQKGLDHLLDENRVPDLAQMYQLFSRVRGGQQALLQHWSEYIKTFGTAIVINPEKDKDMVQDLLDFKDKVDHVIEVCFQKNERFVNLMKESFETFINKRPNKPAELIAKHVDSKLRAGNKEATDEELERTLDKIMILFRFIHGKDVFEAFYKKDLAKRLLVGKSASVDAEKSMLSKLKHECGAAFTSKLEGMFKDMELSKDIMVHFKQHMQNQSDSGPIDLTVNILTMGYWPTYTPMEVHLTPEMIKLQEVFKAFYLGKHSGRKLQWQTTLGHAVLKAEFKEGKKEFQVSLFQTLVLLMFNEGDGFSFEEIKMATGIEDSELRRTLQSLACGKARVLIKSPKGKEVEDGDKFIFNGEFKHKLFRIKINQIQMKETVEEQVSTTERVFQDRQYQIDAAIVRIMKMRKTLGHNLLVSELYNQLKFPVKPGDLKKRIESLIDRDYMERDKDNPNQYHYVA

B1: FH-CRBN ΔMid (deletion of amino acids 187 to 260) (other, not shown: small tags and cut ends)
chain: MAGEGDQQDAAHNMGNHLPLLPAESEEEDEMEVEDQDSKEAKKPNIINFDTSLPTSHTYLGADMEEFHGRTLHDDDSCQVIPVLPQVMMILIPGQTLPLQLFHPQEVSMVRNLIQKDRTFAVLAYSNVQEREAQFGTTAEIYAYREEQDFGIEIVKVKAIGRQRFKVLELRTQSDGIQQAKVQILPLREWDENLKDDSLPSNPIDFSYRVAACLPIDDVLRIQLLKIGSAIQRLRCELDIMNKCTSLCCKQCQETEITTKNEIFSLSLCGPMAAYVNPHGYVHETLTVYKACNLNLIGRPSTEHSWFPGYAWTVAQCKICASHIGWKFTATKKDMSPQKFWGLTRSALLPTIPDTEDEISPDKVILCL
With B1, the binding result was “no binding”.
